PMC11065761
Read-outs that look alike come from different tables or passages of the source.

Legend:
Assay in all cases: SPR
[1] = biological target: C3b
[2] = biological target: C4b biotinylated at the free sulfhydryl group of the thioester moiety
[3] = biological target: C3b; remark: listed apart in the source
[4] = biological target: C3d (UniProt P01024)
[5] = biological target: C4b (amine coupled)

C3d, sequence (P01024 1002-1303): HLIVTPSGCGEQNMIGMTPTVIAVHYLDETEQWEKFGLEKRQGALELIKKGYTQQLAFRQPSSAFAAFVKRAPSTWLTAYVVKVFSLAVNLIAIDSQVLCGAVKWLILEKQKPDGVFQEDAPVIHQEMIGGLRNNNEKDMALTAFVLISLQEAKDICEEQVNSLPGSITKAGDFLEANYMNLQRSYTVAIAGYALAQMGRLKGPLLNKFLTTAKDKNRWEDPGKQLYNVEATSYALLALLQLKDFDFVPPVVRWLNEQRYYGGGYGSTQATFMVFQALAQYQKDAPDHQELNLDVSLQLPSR
Full-length factor H (FH), sequence (P08603 19-1231): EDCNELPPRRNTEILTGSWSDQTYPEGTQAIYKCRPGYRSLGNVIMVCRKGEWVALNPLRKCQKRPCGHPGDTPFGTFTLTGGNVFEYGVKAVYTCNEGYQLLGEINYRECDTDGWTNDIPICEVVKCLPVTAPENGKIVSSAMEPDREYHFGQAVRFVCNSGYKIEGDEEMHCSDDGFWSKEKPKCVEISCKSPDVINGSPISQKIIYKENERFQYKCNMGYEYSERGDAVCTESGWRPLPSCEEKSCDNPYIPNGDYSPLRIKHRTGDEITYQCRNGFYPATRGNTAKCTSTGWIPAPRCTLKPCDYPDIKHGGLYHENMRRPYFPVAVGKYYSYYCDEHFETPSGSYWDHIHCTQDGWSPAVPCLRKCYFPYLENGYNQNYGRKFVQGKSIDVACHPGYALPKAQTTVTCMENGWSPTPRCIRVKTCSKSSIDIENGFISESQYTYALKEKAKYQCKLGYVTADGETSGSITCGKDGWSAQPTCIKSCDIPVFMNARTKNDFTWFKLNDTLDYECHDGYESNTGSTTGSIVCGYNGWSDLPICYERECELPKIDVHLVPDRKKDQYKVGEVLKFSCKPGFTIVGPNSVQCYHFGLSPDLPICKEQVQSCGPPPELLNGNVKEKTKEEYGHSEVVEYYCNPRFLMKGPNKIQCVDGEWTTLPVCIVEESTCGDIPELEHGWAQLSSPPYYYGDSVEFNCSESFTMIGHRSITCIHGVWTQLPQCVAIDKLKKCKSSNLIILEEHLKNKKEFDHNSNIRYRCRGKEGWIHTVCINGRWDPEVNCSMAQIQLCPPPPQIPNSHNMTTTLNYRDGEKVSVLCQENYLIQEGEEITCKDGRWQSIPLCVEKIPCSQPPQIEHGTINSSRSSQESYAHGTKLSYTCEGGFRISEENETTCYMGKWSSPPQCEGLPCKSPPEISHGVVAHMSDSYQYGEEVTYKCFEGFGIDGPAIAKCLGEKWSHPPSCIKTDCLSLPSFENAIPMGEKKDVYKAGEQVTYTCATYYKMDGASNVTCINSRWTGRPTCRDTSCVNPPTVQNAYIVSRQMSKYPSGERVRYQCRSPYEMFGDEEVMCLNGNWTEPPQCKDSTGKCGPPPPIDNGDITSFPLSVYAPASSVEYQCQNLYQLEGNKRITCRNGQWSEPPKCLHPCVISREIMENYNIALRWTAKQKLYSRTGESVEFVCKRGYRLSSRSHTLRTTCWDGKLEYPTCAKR

| Substance | Kd [1] [nM] | Kd [2] [nM] | Kd [3] [nM] | Kd [4] [nM] | Kd [5] [nM] |
| --- | --- | --- | --- | --- | --- |
| CR1(15–17), the middle CCP domains 15 to 17 of complement receptor 1 (domain or fragment) | 900 | 7800 |  |  |  |
| DAF(1–4), the first four CCP domains of decay accelerating factor (domain or fragment) | 11000 | 17600 |  |  |  |
| DAF(1–4)FH(19–20)-LL (long linker, polyglycine linker of 13 residues) | 175 |  |  |  |  |
| DAF(1–4)FH(19–20)-SL (short linker, "GPGG") | 125 |  |  |  |  |
| FH(19–20), the two C-terminal CCP domains of factor H (domain or fragment) | 4700 |  |  |  |  |
| Full-length factor H (FH) (from UniProt P08603 19-1231) (natural protein) |  |  | 802 |  |  |
| TriFu_6G (triple fusion complement inhibitor, 6 glycine residues between DAF and FH) | 50 | 643 | 59 | 22000 | 865 |
| TriFu_13G (triple fusion complement inhibitor, 13 glycine residues between DAF and FH) |  |  | 25 |  |  |
